This passage reports amyloid nucleation score results from the supplement of paper PMC12042874.

The data set can be described thus: amyloid nucleation score (Sup35N fusion, yeast selection) (log enrichment); library NNK2; higher = more nucleation; inactive = no reads after selection. The gist of the method: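 The nucleation score equals the log enrichment of output over input reads from DiMSum, centred on the mode score of non-aggregating sequences. It was computed only for sequences with 100 or more input reads. The reads came from Illumina sequencing of plasmid inserts from psi-negative yeast expressing Sup35N fused to peptides of 20 random codons, induced with 100 μM copper sulfate for 24 hours and grown 7 days at 30°C without adenine and uracil.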

± gives the uncertainty stated by the source.

VSIYLG showed an amyloid nucleation score of 2.72 ± 0.15.

The substance KNYGYNIN gave an amyloid nucleation score of 1.83 ± 0.17.

As for KFFMDYNGILDFWFRTREKD, the amyloid nucleation score was -0.375 ± 0.74.

NHRETVFVVIASRSWHARFG displayed an amyloid nucleation score of -0.19 ± 1.

In turn, GTSHWWIGMRFSEADLLLDW gave an amyloid nucleation score of 0.656 ± 0.41.

DSQKLAGVVSIKVSVANVLS: the amyloid nucleation score amounted to 3.9 ± 0.11.

As to SFNNTHVVPMYLFF, the amyloid nucleation score is 5.402 ± 0.047.

HNGVCSSRARVSLWAGRCWK yielded an amyloid nucleation score of 0.742 ± 0.22.

In turn, WTDSHSKMRNFRPG showed an amyloid nucleation score of -0.259 ± 0.49.

As for CNRSCLLGDNPCTVWRITLF, the amyloid nucleation score was -0.644 ± 0.48.

As for LFLLFFRFFQMGDLHYIIAI, the amyloid nucleation score was -0.661 ± 1.1.

The substance FRWYFNVAATCGNRAPGRNV came in with an amyloid nucleation score of 1.31 ± 0.18.

LYVCHKICSSCLKGW: the amyloid nucleation score was -1.11 ± 0.61.

The substance AFCMDYAAQSAVTRSRDSCS gave an amyloid nucleation score of 0.909 ± 0.53.

Turning to DNKYGFMIVIYTYSAGDAEE, the amyloid nucleation score came to 2.62 ± 0.061.

For ALCRGW, the amyloid nucleation score was -0.689 ± 0.41.

In turn, DLVVELGESQQPWPLVRSRP came in with an amyloid nucleation score of 0.6 ± 0.64.

RYNFYRLNLSRAVASDETCV showed an amyloid nucleation score of -0.854 ± 0.34.

Consider MCCYVSCQ, for which the amyloid nucleation score was 2.55 ± 0.12.

With VLRMRGCW, the amyloid nucleation score is 6.738 ± 0.049.

Substance SKHWTCS yielded an amyloid nucleation score of 0.426 ± 0.57.

Take ADYGVGSRFFVALFSNVFGV: the amyloid nucleation score was 8.15 ± 0.071.

Regarding WFMEILFVV, the amyloid nucleation score is -0.383 ± 0.26.

In the case of VYGYDKISHFVHSMNSNIVW, the amyloid nucleation score result is “inactive”.

In turn, GINISVLNMRQLFRLSAGSH displayed an amyloid nucleation score of 4.36 ± 0.086.

As to YYVHQTHVSCLLAVLCPSLK, the amyloid nucleation score came out at 8.901 ± 0.039.

The substance NDGAIGIVAPGEHLLVRDVK came in with an amyloid nucleation score of -0.573 ± 0.41.

With QIQVYMNALLTRLSSIILIF, the amyloid nucleation score was -0.93 ± 0.55.

Turning to FSFVTFSGNRFDFLLLRPCT, the amyloid nucleation score entry is “inactive”.

VYIVHVPSQFWL showed an amyloid nucleation score of 6.37 ± 0.08.

In turn, KMTLLFARQFGV came in with an amyloid nucleation score of 2.93 ± 0.12.

YYTWCYKKVFGNHWRQDFD returned an amyloid nucleation score of -1.23 ± 0.64.

For GESSPE, the amyloid nucleation score was found to be 0.343 ± 0.8.

YCWMRRMKSLPGNMYVLAT yielded an amyloid nucleation score of 0.25 ± 0.8.

Substance FYVRSSTYFFHVYNYL came in with an amyloid nucleation score of -0.387 ± 0.28.

Substance KSIESGRIRK gave an amyloid nucleation score of 0.627 ± 0.35.

Turning to LNVDGDRAGVYIVKVHDPVR, the amyloid nucleation score was 0.027 ± 0.74.

As to PHCRSLETH, the amyloid nucleation score was -0.083 ± 0.33.

FNMVNTILMNGPSCWLQSVP gave an amyloid nucleation score of 0.21 ± 0.63.

Regarding FILCMTSWDYLDDCRFLFEL, the amyloid nucleation score came out at 1.03 ± 0.25.

MFLKVSLVGNMVSEKPGRSS showed an amyloid nucleation score of 3.21 ± 0.15.

Turning to GKTYLDKLMGGLHRQDPGTR, the amyloid nucleation score worked out at 1.28 ± 0.53.

The substance SMTDRFPSIIYRECILWVTW came in with an amyloid nucleation score of -0.035 ± 0.76.

NEADE: the amyloid nucleation score was -0.119 ± 0.46.

The substance CYLYFIEYWFSEAPYFTSER displayed an amyloid nucleation score of -0.959 ± 1.1.

Take NTEEDDKRVRMGELVVEYSN: the amyloid nucleation score was determined as 1.36 ± 0.17.

Take SIELNLPMFSIRVKMCSRGE: the amyloid nucleation score was 2.53 ± 0.15.

Regarding PITCMLQ, the amyloid nucleation score stood at 0.398 ± 0.35.

In turn, RGMVE came in with an amyloid nucleation score of 0.587 ± 0.53.

In the case of GCSVCDMTF, the amyloid nucleation score was 0.073 ± 0.53.

The substance AFLSLFNSYWYFVFAKLF came in with an amyloid nucleation score of -0.558 ± 0.74.

In turn, LDALVSWSLECGWYESCWSR gave an amyloid nucleation score of -0.025 ± 0.32.

RLNCLSTWIVYCGPGYVSSV: the amyloid nucleation score is -0.571 ± 0.45.

As for LNTMPRK, the amyloid nucleation score worked out at 0.004 ± 1.1.

Consider MNWTSVHLDDWSRILIHTYC, for which the amyloid nucleation score entry was “inactive”.

FYDSVKEISVLSCVWGDILE registered an amyloid nucleation score of 7.235 ± 0.029.

On to HGMYKTG, for which the amyloid nucleation score is 2.54 ± 0.11.

CHISLTKWCRFRVV returned an amyloid nucleation score of -0.014 ± 0.76.

In turn, IYVVMFSKRLNSNFW yielded an amyloid nucleation score of -1.62 ± 0.62.

For NFDVNSRWDTRTCFLSWLKQ, the amyloid nucleation score entry was “inactive”.

As for MNVGCIDQFYCMWRCNIFWP, the amyloid nucleation score was found to be 7.678 ± 0.055.

GFWEGRILG gave an amyloid nucleation score of 2.61 ± 0.22.

FCSGLYHVYAD displayed an amyloid nucleation score of 2.28 ± 0.15.

Take MRCAPLMHHLARPASFRI: the amyloid nucleation score was found to be 2.08 ± 0.096.

Substance LESMFNVL gave an amyloid nucleation score of -0.44 ± 0.56.

With HIFVVGMDRSVVSRSVEP, the amyloid nucleation score entry was “inactive”.

GDMVIDLSKYITYSSL registered an amyloid nucleation score of 1.37 ± 0.38.

Substance MCRRFNFIIEVVVNASMTIR returned an amyloid nucleation score of -1.31 ± 1.

On to SYCHCASGPFSLNPYSLLVC, for which the amyloid nucleation score is 0.716 ± 0.66.

Regarding YTLFLPTRNLRFLVVYGVLV, the amyloid nucleation score was determined as 0.009 ± 0.61.

Take LRFYERDILSILLFLMMMFV: the amyloid nucleation score is -1.07 ± 0.63.

Substance EPNIGSVP returned an amyloid nucleation score of -0.171 ± 0.55.

ALFSIITVFSVRLVVWT: the amyloid nucleation score entry was “inactive”.

Take QSKMH: the amyloid nucleation score is -0.321 ± 0.19.

The substance NVSGMFISMLIFRIMHHGQC had an amyloid nucleation score of 5.11 ± 0.055.

MKAHVVVTLSCRYNLYGAPH: the amyloid nucleation score was 4.52 ± 0.054.

KTIPSGVVGWVSEGQRSTNR showed an amyloid nucleation score of 7.87 ± 0.08.

Regarding HRVAVTKYATRYIPLIMLNW, the amyloid nucleation score is -0.354 ± 0.49.

The substance FNVLIACWGYKDNFNVYSCE registered an amyloid nucleation score of 5.844 ± 0.035.

For IPWVNRTPCSTCGGFRFTDP, the amyloid nucleation score was determined as 3.53 ± 0.08.

As to HCHAVDSLNVHFKEFIHRMN, the amyloid nucleation score entry is “inactive”.

AISGWCNMNCKLGKQWDYLV registered an amyloid nucleation score of 1.25 ± 0.66.

In turn, LVHRCRYGLLTGLFEGQPVM had an amyloid nucleation score of -1.12 ± 1.1.

In turn, LIFYIVNHECINGRYALVGY returned an amyloid nucleation score of 0.448 ± 0.62.

As to KVLFTGFFANVGFSSSVRAN, the amyloid nucleation score is -0.567 ± 1.1.

Consider PRPRWRYCFACRLAVFGTVG, for which the amyloid nucleation score came out at 6.83 ± 0.036.

Substance ETYLVFV had an amyloid nucleation score of 0.072 ± 0.79.

As for VTCNPHGLSHD, the amyloid nucleation score result is “inactive”.

TRRCIERNRNVLFFTFMCRL gave an amyloid nucleation score of 1.41 ± 0.27.

For the substance IFVGIIKIVCWNNEGVDDLQ, the amyloid nucleation score turned out to be 4.61 ± 0.063.

Substance VHQYDSVSAVHADCMG returned an amyloid nucleation score of -1.27 ± 0.53.

RTSFRNVMTIMTSPHVVTFI: the amyloid nucleation score was -0.149 ± 0.4.

SIINLTVPAHPHLNNPLRRQ came in with an amyloid nucleation score of 4.76 ± 0.075.

Take DESIEYSDSGGSCSFPVSK: the amyloid nucleation score result was “inactive”.

FVSLWT gave an amyloid nucleation score of 0.277 ± 0.45.

In turn, CRSCEIVLGFLLSCNMCVLS registered an amyloid nucleation score of 3.79 ± 0.06.

PQNSIPCFAIFTWAWSMKKL: the amyloid nucleation score result is “inactive”.

For MDSMWPSVGGALKSRSGVFR, the amyloid nucleation score is -0.126 ± 0.39.

As for NLKIMLIRTIVYHDWSTMHL, the amyloid nucleation score amounted to 7.161 ± 0.061.

Regarding SPLHKKVYKRLRLTSDTRQI, the amyloid nucleation score was -0.516 ± 0.55.

As for EESGGYC, the amyloid nucleation score is -0.893 ± 0.25.

Regarding KDRRRVDMLRLGR, the amyloid nucleation score amounted to 1.36 ± 0.26.

WSIVGLGSRCWREVASCSTV: the amyloid nucleation score amounted to 0.636 ± 0.49.

Take ILVNLVVVIKSSYRLSKCRF: the amyloid nucleation score is -0.67 ± 1.1.
